Laboratory results published in article PMC6555819, “Comprehensive study of nuclear receptor DNA binding provides a revised framework for understanding receptor specificity”.

Tests used:
FXR:RXRa = FXR:RXRa (Homo sapiens, UniProt Q96RI1;P19793 full;full); experiment: no ligand; PBM; 270 nM : 90 nM RXRa; PBS pH 7.4, 2% milk, 0.02% Triton X-100, 1 mM DTT, BSA, 0.4 mg/ml salmon testes DNA; details: tags: His kept;His cleaved; copies: 1;1; label: surface-attached array probe
Procedure, shortened: (§1)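 Regression normalization was applied to scanned fluorescence from custom Agilent 4×180K protein-binding microarrays. Before scanning, arrays were incubated 1 h with ligand-free nuclear receptor dimers, and binding was detected with antibodies against each partner (one per run). Binding z-scores use the random background probes as reference.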

RARb:RXRa = RARb:RXRa (Homo sapiens, UniProt P10826;P19793 full;full); experiment: as above; details: tags: His kept;His cleaved; copies: 1;1; label: surface-attached array probe
Procedure, shortened: as §1

LXRa:RXRa = LXRa:RXRa (Homo sapiens, UniProt Q13133;P19793 full;full); experiment: as above; details: tags: His kept;His cleaved; copies: 1;1; label: surface-attached array probe
Procedure, shortened: as §1

LXRb:RXRa = LXRb:RXRa (Homo sapiens, UniProt P55055;P19793 full;full); experiment: as above; details: tags: His kept;His cleaved; copies: 1;1; label: surface-attached array probe
Procedure, shortened: as §1

RARa:RXRa = RARa:RXRa (Homo sapiens, UniProt P10276;P19793 full;full); experiment: as above; details: tags: His kept;His cleaved; copies: 1;1; label: surface-attached array probe
Procedure, shortened: as §1

VDR:RXRa = VDR:RXRa (Homo sapiens, UniProt P11473;P19793 full;full); experiment: as above; details: tags: His kept;His cleaved; copies: 1;1; label: surface-attached array probe
Procedure, shortened: as §1

PPARa:RXRa = PPARa:RXRa (Homo sapiens, UniProt Q07869;P19793 full;full); experiment: as above; details: tags: GST kept;His cleaved; copies: 1;1; label: surface-attached array probe
Procedure, shortened: as §1

PXR:RXRa = PXR:RXRa (Homo sapiens, UniProt O75469;P19793 full;full); experiment: as above; details: tags: His kept;His cleaved; copies: 1;1; label: surface-attached array probe
Procedure, shortened: as §1

RARg:RXRa = RARg:RXRa (Homo sapiens, UniProt P13631;P19793 full;full); experiment: as above; details: tags: His kept;His cleaved; copies: 1;1; label: surface-attached array probe
Procedure, shortened: as §1

RXRa = RXRa (Homo sapiens, UniProt P19793); experiment: no ligand; PBM; 180 nM; PBS pH 7.4, 2% milk, 0.02% Triton X-100, 1 mM DTT, BSA, 0.4 mg/ml salmon testes DNA; details: tags: His cleaved; chain copies: 2; label: surface-attached array probe
THRa:RXRa = THRa:RXRa (Homo sapiens, UniProt P10827;P19793 full;full); experiment: no ligand; PBM; 90 nM : 90 nM RXRa; PBS pH 7.4, 2% milk, 0.02% Triton X-100, 1 mM DTT, BSA, 0.4 mg/ml salmon testes DNA; details: tags: His kept;His cleaved; copies: 1;1; label: surface-attached array probe
PPARg:RXRa = PPARg:RXRa (Homo sapiens, UniProt P37231;P19793 full;full); experiment: no ligand; PBM; 180 nM : 90 nM RXRa; PBS pH 7.4, 2% milk, 0.02% Triton X-100, 1 mM DTT, BSA, 0.4 mg/ml salmon testes DNA; details: tags: His kept;His cleaved; copies: 1;1; label: surface-attached array probe

RARa:RXRa, sequence (P10276 whole entry, chain 1 of 2): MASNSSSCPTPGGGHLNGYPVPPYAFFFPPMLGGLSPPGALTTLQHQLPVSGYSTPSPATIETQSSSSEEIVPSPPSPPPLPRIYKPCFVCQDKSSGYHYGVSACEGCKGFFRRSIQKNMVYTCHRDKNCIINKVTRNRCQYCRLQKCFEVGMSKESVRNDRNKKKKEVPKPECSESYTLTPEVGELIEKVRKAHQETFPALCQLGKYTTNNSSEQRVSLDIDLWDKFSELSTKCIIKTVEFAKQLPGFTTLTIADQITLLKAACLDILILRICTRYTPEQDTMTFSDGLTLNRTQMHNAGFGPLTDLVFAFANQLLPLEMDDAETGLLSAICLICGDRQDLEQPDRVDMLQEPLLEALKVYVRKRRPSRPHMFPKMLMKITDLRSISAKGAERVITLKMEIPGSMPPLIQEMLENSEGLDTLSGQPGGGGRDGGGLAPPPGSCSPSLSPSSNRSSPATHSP
RARa:RXRa, sequence (P19793 whole entry, chain 2 of 2): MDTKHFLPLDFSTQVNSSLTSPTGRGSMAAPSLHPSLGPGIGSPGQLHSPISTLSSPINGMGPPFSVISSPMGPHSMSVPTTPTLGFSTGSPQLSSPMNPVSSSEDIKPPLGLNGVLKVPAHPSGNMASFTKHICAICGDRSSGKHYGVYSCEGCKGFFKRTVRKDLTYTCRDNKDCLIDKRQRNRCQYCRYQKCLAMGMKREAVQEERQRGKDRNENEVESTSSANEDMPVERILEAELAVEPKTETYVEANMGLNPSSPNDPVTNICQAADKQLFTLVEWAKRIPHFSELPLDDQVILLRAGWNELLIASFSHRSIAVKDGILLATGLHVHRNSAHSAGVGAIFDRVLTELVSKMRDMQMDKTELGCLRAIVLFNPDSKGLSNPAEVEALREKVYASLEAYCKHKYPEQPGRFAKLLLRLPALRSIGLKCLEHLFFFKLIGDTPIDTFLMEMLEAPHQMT
PPARa:RXRa, sequence (Q07869 whole entry, chain 1 of 2): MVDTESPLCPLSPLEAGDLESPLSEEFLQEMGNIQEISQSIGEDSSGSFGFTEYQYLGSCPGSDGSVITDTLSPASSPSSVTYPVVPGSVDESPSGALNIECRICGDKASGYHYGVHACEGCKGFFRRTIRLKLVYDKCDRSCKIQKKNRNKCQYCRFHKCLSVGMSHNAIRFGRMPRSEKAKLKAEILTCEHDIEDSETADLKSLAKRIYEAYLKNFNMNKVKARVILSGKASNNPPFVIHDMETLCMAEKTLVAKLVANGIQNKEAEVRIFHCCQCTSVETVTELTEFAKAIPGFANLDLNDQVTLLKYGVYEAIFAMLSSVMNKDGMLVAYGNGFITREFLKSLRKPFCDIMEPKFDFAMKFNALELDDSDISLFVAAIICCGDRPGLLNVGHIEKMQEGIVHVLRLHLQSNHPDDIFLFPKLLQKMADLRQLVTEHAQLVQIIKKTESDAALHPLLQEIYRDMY
PPARa:RXRa, sequence (P19793 whole entry, chain 2 of 2): as the sequence (P19793 whole entry, chain 2 of 2) above
FXR:RXRa, sequence (Q96RI1 whole entry, chain 1 of 2): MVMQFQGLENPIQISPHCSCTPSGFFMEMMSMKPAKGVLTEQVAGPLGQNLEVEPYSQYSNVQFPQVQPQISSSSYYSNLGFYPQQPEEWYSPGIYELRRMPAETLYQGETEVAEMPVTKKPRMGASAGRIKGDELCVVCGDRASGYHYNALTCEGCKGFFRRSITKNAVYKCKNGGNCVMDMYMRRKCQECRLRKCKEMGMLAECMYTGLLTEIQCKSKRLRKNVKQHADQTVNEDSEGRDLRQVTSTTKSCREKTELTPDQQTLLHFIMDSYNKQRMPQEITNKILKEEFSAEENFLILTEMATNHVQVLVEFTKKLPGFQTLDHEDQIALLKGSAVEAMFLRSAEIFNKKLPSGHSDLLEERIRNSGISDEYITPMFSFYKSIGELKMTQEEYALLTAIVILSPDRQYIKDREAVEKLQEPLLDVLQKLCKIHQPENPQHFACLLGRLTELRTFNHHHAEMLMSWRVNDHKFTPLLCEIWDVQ
FXR:RXRa, sequence (P19793 whole entry, chain 2 of 2): as the sequence (P19793 whole entry, chain 2 of 2) above
LXRb:RXRa, sequence (P55055 whole entry, chain 1 of 2): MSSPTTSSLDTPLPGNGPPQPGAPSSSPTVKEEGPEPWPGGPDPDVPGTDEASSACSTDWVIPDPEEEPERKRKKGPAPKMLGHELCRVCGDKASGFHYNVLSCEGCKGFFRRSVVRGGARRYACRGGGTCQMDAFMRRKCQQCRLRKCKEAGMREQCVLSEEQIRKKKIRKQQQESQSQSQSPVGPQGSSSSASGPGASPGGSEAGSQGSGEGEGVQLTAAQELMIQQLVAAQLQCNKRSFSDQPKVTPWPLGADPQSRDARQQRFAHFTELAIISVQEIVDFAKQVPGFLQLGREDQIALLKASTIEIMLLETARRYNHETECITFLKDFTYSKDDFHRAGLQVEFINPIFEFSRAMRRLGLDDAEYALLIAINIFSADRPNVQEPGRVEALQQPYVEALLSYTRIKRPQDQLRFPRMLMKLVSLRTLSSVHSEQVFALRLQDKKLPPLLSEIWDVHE
LXRb:RXRa, sequence (P19793 whole entry, chain 2 of 2): as the sequence (P19793 whole entry, chain 2 of 2) above
THRa:RXRa, sequence (P10827 other isoform, or with tags, fused parts or gaps, chain 1 of 2): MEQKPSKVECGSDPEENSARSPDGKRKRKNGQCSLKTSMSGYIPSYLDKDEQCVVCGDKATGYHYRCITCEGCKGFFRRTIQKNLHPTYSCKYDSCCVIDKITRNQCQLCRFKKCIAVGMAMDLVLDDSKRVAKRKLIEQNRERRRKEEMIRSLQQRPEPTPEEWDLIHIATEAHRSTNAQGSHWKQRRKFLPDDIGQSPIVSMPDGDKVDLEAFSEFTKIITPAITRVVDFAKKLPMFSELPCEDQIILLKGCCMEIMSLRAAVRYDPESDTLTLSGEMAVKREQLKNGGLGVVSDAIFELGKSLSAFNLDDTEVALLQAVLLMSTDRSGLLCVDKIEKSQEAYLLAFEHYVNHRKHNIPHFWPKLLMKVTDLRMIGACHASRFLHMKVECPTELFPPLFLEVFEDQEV
THRa:RXRa, sequence (P19793 whole entry, chain 2 of 2): as the sequence (P19793 whole entry, chain 2 of 2) above

Binder	binding signal (FXR:RXRa)	binding signal (RARb:RXRa)	binding signal (LXRa:RXRa)	binding signal (LXRb:RXRa)	binding signal (RARa:RXRa)	binding signal (VDR:RXRa)	binding signal (PPARa:RXRa)	binding signal (PXR:RXRa)	binding signal (RARg:RXRa)	binding signal (RXRa)	binding signal (THRa:RXRa)	binding signal (PPARg:RXRa)
NRC3_wobSeed99_DR4_A12T_o1 (dsDNA) DNA 1: GCTCTCGGAGGTCACGAAAGGTCAGAGCTCGACATCGCGATTGACAGCGTAGAATGAAGG DNA 2: CCTTCATTCTACGCTGTCAATCGCGATGTCGAGCTCTGACCTTTCGTGACCTCCGAGAGC	8.33 PBM z-score against 500 random probes	6.17 PBM z-score against 500 random probes	8.32 PBM z-score against 500 random probes	7.35 PBM z-score against 500 random probes	7.86 PBM z-score against 500 random probes	6.9 PBM z-score against 500 random probes	6.75 PBM z-score against 500 random probes	7.53 PBM z-score against 500 random probes	8.59 PBM z-score against 500 random probes	8.83 PBM z-score against 500 random probes	5.45 PBM z-score against 500 random probes	
NRC3_wobSeed49_DR2_T8A_o1 (dsDNA) DNA 1: GCCAAACAAGGTCAAGAGGTCAAAGTCCGCTTCCCGGCGATTGACAGCGTAGAATGAAGG DNA 2: CCTTCATTCTACGCTGTCAATCGCCGGGAAGCGGACTTTGACCTCTTGACCTTGTTTGGC	8.52 PBM z-score against 500 random probes	6.31 PBM z-score against 500 random probes	7.44 PBM z-score against 500 random probes	6.73 PBM z-score against 500 random probes	9.05 PBM z-score against 500 random probes	7.22 PBM z-score against 500 random probes	7.02 PBM z-score against 500 random probes	7.38 PBM z-score against 500 random probes	9.11 PBM z-score against 500 random probes	9.65 PBM z-score against 500 random probes	4.99 PBM z-score against 500 random probes	
NRC3_wobSeed77_DR3_C8G_o1 (dsDNA) DNA 1: GCACTTAGGGGTCAACGAGGTTATAGCACGCGTATAGCGATTGACAGCGTAGAATGAAGG DNA 2: CCTTCATTCTACGCTGTCAATCGCTATACGCGTGCTATAACCTCGTTGACCCCTAAGTGC	9.08 PBM z-score against 500 random probes	5.68 PBM z-score against 500 random probes	7.15 PBM z-score against 500 random probes	6.91 PBM z-score against 500 random probes	7.93 PBM z-score against 500 random probes	8.74 PBM z-score against 500 random probes	7.03 PBM z-score against 500 random probes	7.16 PBM z-score against 500 random probes	8.09 PBM z-score against 500 random probes	9.89 PBM z-score against 500 random probes	4.82 PBM z-score against 500 random probes	
NRC3_wobSeed25_DR1_T8G_o1 (dsDNA) DNA 1: GCCAAACGAGGTCAAAGGTCAAAGTCGAGCCAACCAGCGATTGACAGCGTAGAATGAAGG DNA 2: CCTTCATTCTACGCTGTCAATCGCTGGTTGGCTCGACTTTGACCTTTGACCTCGTTTGGC	9.93 PBM z-score against 500 random probes	6.33 PBM z-score against 500 random probes	8.54 PBM z-score against 500 random probes	8.31 PBM z-score against 500 random probes	9.62 PBM z-score against 500 random probes	8.02 PBM z-score against 500 random probes		7.89 PBM z-score against 500 random probes	9.68 PBM z-score against 500 random probes	11 PBM z-score against 500 random probes	5.46 PBM z-score against 500 random probes	
NRC3_random_hg19_67_o1 (dsDNA) DNA 1: GCCTGGCTGGGCATGGTGGCTCATGCCTGTAATCCCGCGATTGACAGCGTAGAATGAAGG DNA 2: CCTTCATTCTACGCTGTCAATCGCGGGATTACAGGCATGAGCCACCATGCCCAGCCAGGC					-0.94 PBM z-score against 500 random probes						-0.95 PBM z-score against 500 random probes	-1.37 PBM z-score against 500 random probes
NRC3_wobSeed73_DR3_T8G_o1 (dsDNA) DNA 1: GCCAAACGAGGTCACAGAGGTCAAAGTCCGTGCGTAGCGATTGACAGCGTAGAATGAAGG DNA 2: CCTTCATTCTACGCTGTCAATCGCTACGCACGGACTTTGACCTCTGTGACCTCGTTTGGC	9.18 PBM z-score against 500 random probes	5.94 PBM z-score against 500 random probes	7.82 PBM z-score against 500 random probes	7.74 PBM z-score against 500 random probes	9.08 PBM z-score against 500 random probes	8.86 PBM z-score against 500 random probes	7.16 PBM z-score against 500 random probes	8.14 PBM z-score against 500 random probes	8.72 PBM z-score against 500 random probes	9.83 PBM z-score against 500 random probes	5.25 PBM z-score against 500 random probes	
NRC3_wobSeed1_DR0_T8G_o1 (dsDNA) DNA 1: GCCAAACGAGGTCAAGGTCAAAGTCGGTTTGTGCCAGCGATTGACAGCGTAGAATGAAGG DNA 2: CCTTCATTCTACGCTGTCAATCGCTGGCACAAACCGACTTTGACCTTGACCTCGTTTGGC	8.73 PBM z-score against 500 random probes	5.8 PBM z-score against 500 random probes	6.82 PBM z-score against 500 random probes	6.16 PBM z-score against 500 random probes	7.18 PBM z-score against 500 random probes	6.53 PBM z-score against 500 random probes	6.72 PBM z-score against 500 random probes	6.83 PBM z-score against 500 random probes	7.53 PBM z-score against 500 random probes	8.3 PBM z-score against 500 random probes	4.94 PBM z-score against 500 random probes	
NRC3_random_hg19_478_o1 (dsDNA) DNA 1: GCATCAGCCATTTGGTATGCAAGTAGATTAGAAGCCGCGATTGACAGCGTAGAATGAAGG DNA 2: CCTTCATTCTACGCTGTCAATCGCGGCTTCTAATCTACTTGCATACCAAATGGCTGATGC			-0.84 PBM z-score against 500 random probes		-0.34 PBM z-score against 500 random probes		-0.63 PBM z-score against 500 random probes				-0.66 PBM z-score against 500 random probes	0.2 PBM z-score against 500 random probes
NRC3_wobSeed121_DR5_T8A_o1 (dsDNA) DNA 1: GCCAAACAAGGTCACCGGAAGGTCAAAGTCCGCATGGCGATTGACAGCGTAGAATGAAGG DNA 2: CCTTCATTCTACGCTGTCAATCGCCATGCGGACTTTGACCTTCCGGTGACCTTGTTTGGC	8.52 PBM z-score against 500 random probes	6.21 PBM z-score against 500 random probes	7.26 PBM z-score against 500 random probes	7.08 PBM z-score against 500 random probes	8.86 PBM z-score against 500 random probes	7.25 PBM z-score against 500 random probes		7.43 PBM z-score against 500 random probes	9.36 PBM z-score against 500 random probes	8.89 PBM z-score against 500 random probes	5.05 PBM z-score against 500 random probes	
NRC3_wobSeed121_DR5_T8G_o1 (dsDNA) DNA 1: GCCAAACGAGGTCACCGGAAGGTCAAAGTCCGCATGGCGATTGACAGCGTAGAATGAAGG DNA 2: CCTTCATTCTACGCTGTCAATCGCCATGCGGACTTTGACCTTCCGGTGACCTCGTTTGGC	8.64 PBM z-score against 500 random probes	6.23 PBM z-score against 500 random probes	7.39 PBM z-score against 500 random probes	7.15 PBM z-score against 500 random probes	8.77 PBM z-score against 500 random probes	7.56 PBM z-score against 500 random probes	7.14 PBM z-score against 500 random probes	7.41 PBM z-score against 500 random probes	9.6 PBM z-score against 500 random probes	9.51 PBM z-score against 500 random probes	5.39 PBM z-score against 500 random probes	
NRC3_random_hg19_355_o1 (dsDNA) DNA 1: GCTCACCGTGTTAGCCAGGATGGTCTCAATCTCCTGGCGATTGACAGCGTAGAATGAAGG DNA 2: CCTTCATTCTACGCTGTCAATCGCCAGGAGATTGAGACCATCCTGGCTAACACGGTGAGC					-0.62 PBM z-score against 500 random probes		0.1 PBM z-score against 500 random probes			-0.34 PBM z-score against 500 random probes	-0.48 PBM z-score against 500 random probes	-0.61 PBM z-score against 500 random probes
NRC3_random_hg19_204_o1 (dsDNA) DNA 1: GCGCCTGCATCTCCACATCCATGGAGTCCTGCTGAGGCGATTGACAGCGTAGAATGAAGG DNA 2: CCTTCATTCTACGCTGTCAATCGCCTCAGCAGGACTCCATGGATGTGGAGATGCAGGCGC					-0.76 PBM z-score against 500 random probes			-0.93 PBM z-score against 500 random probes		-0.59 PBM z-score against 500 random probes	-0.86 PBM z-score against 500 random probes	0.07 PBM z-score against 500 random probes
NRC3_wobSeed109_DR4_C7A_o1 (dsDNA) DNA 1: GCCGTCAAAGGTCATAGGAGGTCAGTGAAGACAGATGCGATTGACAGCGTAGAATGAAGG DNA 2: CCTTCATTCTACGCTGTCAATCGCATCTGTCTTCACTGACCTCCTATGACCTTTGACGGC	8.92 PBM z-score against 500 random probes	6.2 PBM z-score against 500 random probes	8.48 PBM z-score against 500 random probes	7.17 PBM z-score against 500 random probes	7.3 PBM z-score against 500 random probes	7.29 PBM z-score against 500 random probes	7.01 PBM z-score against 500 random probes	7.51 PBM z-score against 500 random probes	8.29 PBM z-score against 500 random probes	8.51 PBM z-score against 500 random probes	5.57 PBM z-score against 500 random probes	
